Reference: patent publication US20230407373A1 (priority 2020, published 2023)
Read-outs that look alike come from different tables or passages of the source.

Experiments:
Type in all cases: binding
SARS-CoV-2 gRNA = conditions: for target (unweighted spectral count of the protein in the RNP capture): LC-MS/MS, Probe I sample (first 199 lines of Table 2)
HCoV-OC43 gRNA and sgRNA = conditions: for target (unweighted spectral count, OC43 Probe II capture) / target (spectral count) / background (spectral count): 36 hpi; for target (unweighted spectral count, OC43 Probe II capture): type n_36_v, FDR<10%; for target (unweighted spectral count, OC43 Probe II capture) / target (unweighted spectral count): tested against no-probe control; for target (unweighted spectral count): OC43 Probe II, infected cells; for target (unweighted spectral count, OC43 Probe II) / background (unweighted spectral count, no-probe control): type n_48_v, 48 hpi; for target (unweighted spectral count, OC43 Probe II): OC43 Probe II capture on infected cells; for background (unweighted spectral count, no-probe control): no-probe control on infected cells; for target (spectral count) / background (spectral count): type s_36_m, Probe II; for target (spectral count): HCoV-OC43-infected HCT-8 cells; for background (spectral count): uninfected-probe control
[1] = system: SARS-CoV-2 gRNA and sgRNAs
gRNA of HCoV-OC43 = conditions: for target (spectral count) / background (spectral count): type g_36_m, 36 hpi, Probe I; for target (spectral count): HCoV-OC43-infected HCT-8 cells; for background (spectral count): uninfected-probe control; for target (spectral count, OC43 Probe I RNP capture) / background (spectral count, no-probe control): type n_48_v: 48 hours post-infection; for target (spectral count, OC43 Probe I RNP capture): infected cells, unweighted spectral count; for background (spectral count, no-probe control): no-probe control on infected cells

Row | Molecule | enrichment in SARS-CoV-2 Probe I RNP capture (SARS-CoV-2 gRNA) | target (unweighted spectral count of the protein in the RNP capture) (SARS-CoV-2 gRNA) | target (unweighted spectral count, OC43 Probe II capture) (HCoV-OC43 gRNA and sgRNA) | target (unweighted spectral count) (HCoV-OC43 gRNA and sgRNA; 24 hpi (type n_24_v)) | target (unweighted spectral count, OC43 Probe II) (HCoV-OC43 gRNA and sgRNA) | background (unweighted spectral count, no-probe control) (HCoV-OC43 gRNA and sgRNA) | target (spectral count) (HCoV-OC43 gRNA and sgRNA) | background (spectral count) (HCoV-OC43 gRNA and sgRNA) | enrichment in SARS-CoV-2 Probe II RNP capture [1] | background (unweighted spectral count in control) ([1]; no-probe control pull-down, used as background for Probe II) | target (spectral count) (gRNA of HCoV-OC43) | background (spectral count) (gRNA of HCoV-OC43) | target (spectral count, OC43 Probe I RNP capture) (gRNA of HCoV-OC43) | background (spectral count, no-probe control) (gRNA of HCoV-OC43) | target (unweighted spectral count) (HCoV-OC43 gRNA and sgRNA; 12 hpi (type n_12_v))
1 | MOV10: host protein, UniProt Q9HCE1 (protein, UniProt Q9HCE1 1-1003, looked up) Helicase MOV-10: MPSKFSCRQLREAGQCFESFLVVRGLDMETDRERLRTIYNRDFKISFGTPAPGFSSMLYGMKIANLAYVTKTRVRFFRLDRWADVRFPEKRRMKLGSDISKHHKSLLAKIFYDRAEYLHGKHGVDVEVQGPHEARDGQLLIRLDLNRKEVLTLRLRNGGTQSVTLTHLFPLCRTPQFAFYNEDQELPCPLGPGECYELHVHCKTSFVGYFPATVLWELLGPGESGSEGAGTFYIARFLAAVAHSPLAAQLKPMTPFKRTRITGNPVVTNRIEEGERPDRAKGYDLELSMALGTYYPPPRLRQLLPMLLQGTSIFTAPKEIAEIKAQLETALKWRNYEVKLRLLLHLEELQMEHDIRHYDLESVPMTWDPVDQNPRLLTLEVPGVTESRPSVLRGDHLFALLSSETHQEDPITYKGFVHKVELDRVKLSFSMSLLSRFVDGLTFKVNFTFNRQPLRVQHRALELTGRWLLWPMLFPVAPRDVPLLPSDVKLKLYDRSLESNPEQLQAMRHIVTGTTRPAPYIIFGPPGTGKTVTLVEAIKQVVKHLPKAHILACAPSNSGADLLCQRLRVHLPSSIYRLLAPSRDIRMVPEDIKPCCNWDAKKGEYVFPAKKKLQEYRVLITTLITAGRLVSAQFPIDHFTHIFIDEAGHCMEPESLVAIAGLMEVKETGDPGGQLVLAGDPRQLGPVLRSPLTQKHGLGYSLLERLLTYNSLYKKGPDGYDPQFITKLLRNYRSHPTILDIPNQLYYEGELQACADVVDRERFCRWAGLPRQGFPIIFHGVMGKDEREGNSPSFFNPEEAATVTSYLKLLLAPSSKKGKARLSPRSVGVISPYRKQVEKIRYCITKLDRELRGLDDIKDLKVGSVEEFQGQERSVILISTVRSSQSFVQLDLDFNLGFLKNPKRFNVAVTRAKALLIIVGNPLLLGHDPDWKVFLEFCKENGGYTGCPFPAKLDLQQGQNLLQGLSKLSPSTSGPHSHDYLPQEREGEGGLSLQVEPEWRNEL | found in the SARS-CoV-2 experiments | 16 | 24 | 35 | 37 | 1 | 24 | 1 | found in the SARS-CoV-2 experiments | 1 | 26 | 1 | 25 | 1 | 
2 | MATR3: host protein, UniProt P43243 (protein, UniProt P43243 2-847, looked up) Matrin-3: SKSFQQSSLSRDSQGHGRDLSAAGIGLLAAATQSLSMPASLGRMNQGTARLASLMNLGMSSSLNQQGAHSALSSASTSSHNLQSIFNIGSRGPLPLSSQHRGDADQASNILASFGLSARDLDELSRYPEDKITPENLPQILLQLKRRRTEEGPTLSYGRDGRSATREPPYRVPRDDWEEKRHFRRDSFDDRGPSLNPVLDYDHGSRSQESGYYDRMDYEDDRLRDGERCRDDSFFGETSHNYHKFDSEYERMGRGPGPLQERSLFEKKRGAPPSSNIEDFHGLLPKGYPHLCSICDLPVHSNKEWSQHINGASHSRRCQLLLEIYPEWNPDNDTGHTMGDPFMLQQSTNPAPGILGPPPPSFHLGGPAVGPRGNLGAGNGNLQGPRHMQKGRVETSRVVHIMDFQRGKNLRYQLLQLVEPFGVISNHLILNKINEAFIEMATTEDAQAAVDYYTTTPALVFGKPVRVHLSQKYKRIKKPEGKPDQKFDQKQELGRVIHLSNLPHSGYSDSAVLKLAEPYGKIKNYILMRMKSQAFIEMETREDAMAMVDHCLKKALWFQGRCVKVDLSEKYKKLVLRIPNRGIDLLKKDKSRKRSYSPDGKESPSDKKSKTDGSQKTESSTEGKEQEEKSGEDGEKDTKDDQTEQEPNMLLESEDELLVDEEEAAALLESGSSVGDETDLANLGDVASDGKKEPSDKAVKKDGSASAAAKKKLKKVDKIEELDQENEAALENGIKNEENTEPGAESSENADDPNKDTSENADGQSDENKDDYTIPDEYRIGPYQPNVPVGIDYVIPKTGFYCKLCSLFYTNEEVAKNTHCSSLPHYQKLKKFLNKLAEERRQKKET | found in the SARS-CoV-2 experiments | 56 | 39 | 20 | 39 | 3 | 39 | 4 | found in the SARS-CoV-2 experiments |  | 57 | 4 | 41 | 3 | 11
3 | FAM120A: host protein, UniProt Q9NZB2 (protein, UniProt Q9NZB2 1-1118, looked up) Constitutive coactivator of …: MGVQGFQDYIEKHCPSAVVPVELQKLARGSLVGGGRQRPPQTPLRLLVDADNCLHRLYGGFYTDWVSGGQWNHMLGYLAALAKACFGGNIELFVFFNGALEKARLHEWVKRQGNERQTAQQIVSHVQNKGTPPPKVWFLPPVCMAHCIRLALIRFHVKVAQSIEDHHQEVIGFCRENGFHGLVAYDSDYALCNIPYYFSAHALKLSRNGKSLTTSQYLMHEVAKQLDLNPNRFPIFAALLGNHILPDEDLASFHWSLLGPEHPLASLKVRAHQLVLPPCDVVIKAVADYVRNIQDTSDLDAIAKDVFQHSQSRTDDKVIRFKRAIGYYSATSKPMSFHPPHYLAARPGPFGMPGMVPPHVPPQMLNIPQTSLQAKPVAPQVPSPGGAPGQGPYPYSLSEPAPLTLDTSGKNLTEQNSYSNIPHEGKHTPLYERSSPINPAQSGSPNHVDSAYFPGSSTSSSSDNDEGSGGATNHISGNKIGWEKTGSHSEPQARGDPGDQTKAEGSSTASSGSQLAEGKGSQMGTVQPIPCLLSMPTRNHMDITTPPLPPVAPEVLRVAEHRHKKGLMYPYIFHVLTKGEIKIAVSIEDEANKDLPPAALLYRPVRQYVYGVLFSLAESRKKTERLAFRKNRLPPEFSPVIIKEWAAYKGKSPQTPELVEALAFREWTCPNLKRLWLGKAVEDKNRRMRAFLACMRSDTPAMLNPANVPTHLMVLCCVLRYMVQWPGARILRRQELDAFLAQALSPKLYEPDQLQELKIENLDPRGIQLSALFMSGVDMALFANDACGQPIPWEHCCPWMYFDGKLFQSKLLKASREKTPLIDLCDGQADQAAKVEKMRQSVLEGLSFSRQSHTLPFPPPPALPFYPASAYPRHFGPVPPSQGRGRGFAGVCGFGGPYGETVATGPYRAFRVAAASGHCGAFSGSDSSRTSKSQGGVQPIPSQGGKLEIAGTVVGHWAGSRRGRGGRGPFPLQVVSVGGPARGRPRGVISTPVIRTFGRGGRYYGRGYKNQAAIQGRPPYAASAEEVAKELKSKSGESKSSAMSSDGSLAENGVMAEEKPAPQMNGSTGDARAPSHSESALNNDSKTCNTNPHLNALSTDSACRREAALEAAVLNKEE | found in the SARS-CoV-2 experiments |  | 18 | 18 | 33 | 2 | 19 | 2 | found in the SARS-CoV-2 experiments |  | 23 | 2 | 29 | 2 | 4
